In patent US12606635B2, “Glypican-2-binding moieties, chimeric antigen receptors and uses thereof” (Nanjing Legend Biotech Co., Ltd., priority 2020, dated 2026):

B1: CAS77932-BBz: camel VHH anti-GPC2 CAR (4-1BB, CD3ζ), SEQ ID NO: 208; tested as CAR T cells (protein)
chain: MALPVTALLLPLALLLHAARPQVQLKESGGGSVQAGGSLRLSCAVSGYWYSVAWMGWFRQTPGKEREGVAAVLNGGGRRYYADSVKGRFTISQDNSKNTLYLQMNSLKPEDTAMYYCAAGNGVGHPLGPSEYNYWGQGTQVTVSSTTTPAPRPPTPAPTIASQPLSLRPEACRPAAGGAVHTRGLDFACDIYIWAPLAGTCGVLLLSLVITLYCKRGRKKLLYIFKQPFMRPVQTTQEEDGCSCRFPEEEEGGCELRVKFSRSADAPAYKQGQNQLYNELNLGRREEYDVLDKRRGRDPEMGGKPRRKNPQEGLYNELQKDKMAEAYSEIGMKGERRRGKGHDGLYQGLSTATKDTYDALHMQALPPR
modifications: expressed in CAR T cells; CAS77932-BBz
B2: CAS77916-BBz: camel VHH anti-GPC2 CAR (4-1BB, CD3ζ), SEQ ID NO: 207; tested as CAR T cells (protein)
chain: MALPVTALLLPLALLLHAARPQVHLMESGGGSVQAGGSLRLSCATSGYTSSWNCMGWFRQPPGKEREGVATIANRGHSTYYADSVKGRFTISQGNAKNTVYLQMNSLKPEDTAMYYCATDTWACVGISTDFEYWGQGTQVTVSSTTTPAPRPPTPAPTIASQPLSLRPEACRPAAGGAVHTRGLDFACDIYIWAPLAGTCGVLLLSLVITLYCKRGRKKLLYIFKQPFMRPVQTTQEEDGCSCRFPEEEEGGCELRVKFSRSADAPAYKQGQNQLYNELNLGRREEYDVLDKRRGRDPEMGGKPRRKNPQEGLYNELQKDKMAEAYSEIGMKGERRRGKGHDGLYQGLSTATKDTYDALHMQALPPR
modifications: expressed in CAR T cells; CAS77916-BBz
B3: CAS79101-BBz: camel VHH anti-GPC2 CAR (4-1BB, CD3ζ), SEQ ID NO: 215; tested as CAR T cells (protein)
chain: MALPVTALLLPLALLLHAARPQVQLVESGGGSVQAGGSLRLSCAASGDTYSNYCMGWFRQAPGKEREEVAAIDSDGSRRYPDSVKGRFTISKDNAKKILYLQMNSLKPEDTAMYFCATDPKVACARVVEYGGGWYRWGQGTQVTVSSTTTPAPRPPTPAPTIASQPLSLRPEACRPAAGGAVHTRGLDFACDIYIWAPLAGTCGVLLLSLVITLYCKRGRKKLLYIFKQPFMRPVQTTQEEDGCSCRFPEEEEGGCELRVKFSRSADAPAYKQGQNQLYNELNLGRREEYDVLDKRRGRDPEMGGKPRRKNPQEGLYNELQKDKMAEAYSEIGMKGERRRGKGHDGLYQGLSTATKDTYDALHMQALPPR
modifications: expressed in CAR T cells; CAS79101-BBz
B4: CAS79236-BBz: camel VHH anti-GPC2 CAR (4-1BB, CD3ζ), SEQ ID NO: 216; tested as CAR T cells (protein)
chain: MALPVTALLLPLALLLHAARPQVKLVESGGGSVQAGGSLRLSCAVSGYTYSSYCMAWFRQAPGEEREGVASIDAGGRTTYVDSVKGRFTISKDNAKTSLYLQMNSLKPEDTAMYYCAVDVRTRCGGTWDGEAVYFPYWGQGTQVTVSSTTTPAPRPPTPAPTIASQPLSLRPEACRPAAGGAVHTRGLDFACDIYIWAPLAGTCGVLLLSLVITLYCKRGRKKLLYIFKQPFMRPVQTTQEEDGCSCRFPEEEEGGCELRVKFSRSADAPAYKQGQNQLYNELNLGRREEYDVLDKRRGRDPEMGGKPRRKNPQEGLYNELQKDKMAEAYSEIGMKGERRRGKGHDGLYQGLSTATKDTYDALHMQALPPR
modifications: expressed in CAR T cells; CAS79236-BBz
B5: CAS77986-BBz: camel VHH anti-GPC2 CAR (4-1BB, CD3ζ), SEQ ID NO: 211; tested as CAR T cells (protein)
chain: MALPVTALLLPLALLLHAARPQVQLVESGGGSVQAGGSLRLSCAASASGYTYSSDSMAWFRQAPGKEREGVAGISTGGRSTYYADSVKGRFTISQDNAKTTVYLHMNSLKPEDTAMYYCAADGPSMTAIQALGDLYPVDFAWWGQGTQVTVSSTTTPAPRPPTPAPTIASQPLSLRPEACRPAAGGAVHTRGLDFACDIYIWAPLAGTCGVLLLSLVITLYCKRGRKKLLYIFKQPFMRPVQTTQEEDGCSCRFPEEEEGGCELRVKFSRSADAPAYKQGQNQLYNELNLGRREEYDVLDKRRGRDPEMGGKPRRKNPQEGLYNELQKDKMAEAYSEIGMKGERRRGKGHDGLYQGLSTATKDTYDALHMQALPPR
modifications: expressed in CAR T cells; CAS77986-BBz
B6: CAS78117-BBz: camel VHH anti-GPC2 CAR (4-1BB, CD3ζ), SEQ ID NO: 212; tested as CAR T cells (protein)
chain: MALPVTALLLPLALLLHAARPQVKLVESGGGSVQAGGALRLSCIVRRYTYATYSMAWFRQSPGKEREGVAGLDSVGATGYAESVKGRFTISKDNAKNILYLQMNSLKPEDTAMYYCVVDPASAKVTYGSWSTPSYAYWGQGTQVTVSSTTTPAPRPPTPAPTIASQPLSLRPEACRPAAGGAVHTRGLDFACDIYIWAPLAGTCGVLLLSLVITLYCKRGRKKLLYIFKQPFMRPVQTTQEEDGCSCRFPEEEEGGCELRVKFSRSADAPAYKQGQNQLYNELNLGRREEYDVLDKRRGRDPEMGGKPRRKNPQEGLYNELQKDKMAEAYSEIGMKGERRRGKGHDGLYQGLSTATKDTYDALHMQALPPR
modifications: expressed in CAR T cells; CAS78117-BBz
B7: AS72669VH6-hIgG1Fc: AS72669VH6 VHH fused to human IgG1Fc fragment (protein)
chain: QVQLVESGGGVVQPGGSLRLSCAASRFTYSSYCMGWIRQAPGKGREGVAIFYTGGGRTYYADSVKGRFTISQDNSKNTLYLQMNSLRAEDTAVYYCVAGFYCSGGYWEGDFGYWGQGTLVTVSS
modifications: left off: a dimerising Fc or GST
notes: AS72669VH6 VHH fused to human IgG1Fc fragment
B8: AS71529VH6-AS70950VH6-hIgG1Fc: tandem AS71529VH6-AS70950VH6 VHH fused to human IgG1Fc fragment (protein)
chain: EVQLVESGGGLVQPGGSLRLSCAVSEYRYSSRYCMGWFRQAPGKGREGVAAIDSNGSADYVDSVKGRFTISKDNSKNTLYLQMNSLRAEDTAMYYCAADHLAYDCYSGATSVFRYWGQGTLVTVSSGGGGSGGGGSGGGGSEVQLVESGGGLVQPGGSLRLSCAISEFTYKNTCVGWFRQAPGKGREGVAAIDSDGNTNYVDSVKGRFTISQDNSKNTVYLQMNSLRAEDTAMYYCAAGAYCGRLLLWIGNYAYWGQGTLVTVSS
modifications: left off: a dimerising Fc or GST
notes: tandem AS71529VH6-AS70950VH6 VHH fused to human IgG1Fc fragment

tested on: human neuroblastoma cell line SH-SY5Y; assay: In vitro cytotoxicity assay (LDH), SH-SY5Y; assay type: cell-based; settings: second group, FIG. 6C
Method: The pre-activated T cells were transduced with lentivirus stock in the presence of […] polybrene and 300 IU/mL IL-2. T cells and lentivirus were centrifuged at 1000 g, 32° C. for 1 h and placed in humidified cell culture incubator for transgene expression under suitable conditions. On day 5 or day 7 or day 10 post-transduction, transduced T cells were harvested and co-incubated with tumor cells at an effector (CAR T) to target cell ratio of 10:1 or 5:1 or 2:1 or 1:1 or 0.2:1 for 20 hours. Target cells were human neuroblastoma cell line SH-SY5Y (ATCC, #CRL-2266), human neuroblastoma cell line IMR-32 cells (ATCC, #CCL-127), or human epidermoid carcinoma cell line A-431 (ATCC, #CRL-1555). To assay the cytotoxicity of CAR T cells on tumor cells, the Cytotoxicity Detection Kit (LDH) (Roche, #11644793001) assay reagents were prepared according to manufacturer's protocol. Reaction mix was added to the cell-free supernatant of each sample to detect the LDH released from cells. Optical densities at OD492 nm and OD650 nm were measured by PHERStar Microplate Reader. Baseline LDH released from the target cell in the absence of effector cells and effector cell in the absence of target cells were subtracted from the total LDH amount. The target maximum release was obtained by adding Triton-X100 at a final concentration of 1% to target cells in the absence of effector cells at the time when the cytotoxicity assays initiated. Supernatant from target cells in the absence of effector cells was used for target minimum release. The specific cytotoxicity was calculated by the formula: % Target cell lysis=100*[(OD CAR T cell+Target cell)−(OD CAR T cell)−(OD Target cell)+(OD Buffer background)]/(OD Target Maximum release−OD Target Minimum release).
On day 5 or day 8 or day 10 post-transduction, transduced T cells were harvested and co-incubated with tumor cells at an effector (CAR T) to target cell ratio of 10:1 or 1:1 or 0.2:1 for 20 hours. To assay the cytotoxicity of CAR T cells on tumor cells, the Cytotoxicity Detection Kit (LDH) (Roche, #11644793001) was added to the culture supernatant and the specific cytotoxicity for each CAR T cell construct was measured as described in Example 6.

Molecule | cytotoxicity against SH-SY5Y compared with CAS70950-BBz, CAS72052-BBz and CAS72669-BBz
B1 | better cytotoxicity
B2 | better cytotoxicity
B3 | better cytotoxicity
B4 | better cytotoxicity
B5 | better cytotoxicity
B6 | better cytotoxicity

molecular target: T1, recombinant human GPC2-His protein (Homo sapiens, UniProt Q8N158); assay: SPR (Biacore T200) affinity of anti-GPC2 VHH-hIgG1Fc; settings: 1:1 binding model
T1 construct: His
T1 sequence (Q8N158 24-554): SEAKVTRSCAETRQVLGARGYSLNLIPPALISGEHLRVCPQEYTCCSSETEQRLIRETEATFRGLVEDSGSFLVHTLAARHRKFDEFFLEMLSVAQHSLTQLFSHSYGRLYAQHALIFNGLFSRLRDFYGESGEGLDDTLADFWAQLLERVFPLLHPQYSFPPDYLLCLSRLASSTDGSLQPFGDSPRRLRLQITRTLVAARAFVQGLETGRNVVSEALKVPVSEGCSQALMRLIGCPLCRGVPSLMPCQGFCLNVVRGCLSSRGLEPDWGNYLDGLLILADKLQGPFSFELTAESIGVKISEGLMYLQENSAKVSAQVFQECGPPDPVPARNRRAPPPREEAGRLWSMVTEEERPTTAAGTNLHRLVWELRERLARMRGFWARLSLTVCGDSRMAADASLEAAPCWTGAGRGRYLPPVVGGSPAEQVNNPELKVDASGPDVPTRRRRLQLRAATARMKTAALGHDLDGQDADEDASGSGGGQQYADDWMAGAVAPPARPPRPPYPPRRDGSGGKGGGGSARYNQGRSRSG
Method: Each of the exemplary anti-GPC2 VHH sequences was cloned into a vector comprising a human IgG1Fc fragment (hlgG1Fc) sequence to facilitate recombinant expression of anti-GPC2 VHH-hlgG1Fc. Recombinant proteins were obtained and purified for SPR assays. The affinity of each anti-GPC2 VHH-hIgG1Fc for GPC2 was determined by SPR using a BIACORE® T200 analytical system (GE Healthcare). Briefly, recombinant human GPC2-His protein was covalently coupled to a CM5(s) sensor chip using an amine coupling kit. Exemplary VHH-hIgG1Fc proteins were serially diluted in running buffer (10 mM HEPES, 150 mM NaCl, 3 mM EDTA, 0.05% Tween-20, pH 7.4) and injected over the chip cell at a flowrate of 100 μL/min for 100 seconds followed by buffer-only injection for 300 seconds to allow for antibody dissociation. The dissociation […] (KD) were determined using the BIACORE® T200 evaluation software version 3.0 (Langmuir binding, local fit, 1:1 binding model).

Molecule | ka | kd
B7 | 520000 M⁻¹ s⁻¹ | 7.7e-05 s⁻¹
B8 | 320000 M⁻¹ s⁻¹ | 6.1e-05 s⁻¹
